Measurements: paper PMC9444907
Read-outs that look alike come from different tables or passages of the source.

Columns and labels:
[1] = biological target: Rb pocket domain (Homo sapiens) (UniProt P06400); settings: cited from earlier work
[2] = biological target: human Rb pocket domain lacking the single internal loop (residues 380-787; Δ582-642) (human) (UniProt P06400); assay: ITC
[3] = biological target: p107ΔL pocket domain (residues 389-972, Δ600-779, Δ888-923) (human); assay: ITC
[4] = biological target: Rb pocket domain (Homo sapiens) (UniProt P06400); settings: cited from earlier work; remark: listed apart in the source
[5] = biological target: p107 pocket domain V939M (human); assay: ITC
[6] = biological target: p107 pocket domain M865V (human); assay: ITC

For HPV16 E7 peptide (from UniProt P03129), the Kd [1] is given as 5 nM.

Substance EID1 peptide E176R/E177R has a Kd [2] of 9000 nM and a Kd [3] of 14000 nM.

With human EID1 LxCxE motif peptide the Kd [2] was 6000 nM and the Kd [3] was 7000 nM.

For EID1 peptide G179Y/D181Y, the Kd [2] was 170 nM and the Kd [3] was 250 nM.

ARID4A peptide E955R gave a Kd [3] of 2300 nM.

In the case of human HDAC1 LxCxE motif peptide, the Kd [3] is reported as > 10000 nM.

In the case of “PRDM2 IxCxE peptide (from UniProt Q13029)”, the Kd [4] is given as 640 nM.

Work on human ARID4A LxCxE motif peptide yielded a Kd [2] of 140 nM, a Kd [5] of 330 nM and a Kd [3] of 1600 nM. It also gave a Kd [6] of 120 nM.

In the case of “HDAC1 triple (3X) mutant peptide R413D/A415Y/E417Y”, the Kd [3] is reported as 105 nM.
